# The DeepSol protein solubility set
# Assay: soluble on expression in E. coli; label from the status in PepcDB or PDB records
row,Sequence,soluble on expression in E. coli
1,MTIYTLSHGSLKLDVSDQGGVIEGFWRDTTPLLRPGKKSGVATDASCFPLVPFANRVSGNRFVWQGREYQLQPNVEWDAHYLHGDGWLGEWQCVSHSDDSLCLVYEHRSGVYHYRVSQAFHLTADTLTVTLSVTNQGAETLPFGTGWHPYFPLSPQTRIQAQASGYWLEREQWLAGEFCEQLPQELDFNQPAPLPRQWVNNGFAGWNGQARIEQPQEGYAIIMETTPPAPCYFIFVSDPAFDKGYAFDFFCLEPMSHAPDDHHRPEGGDLIALAPGESTTSEMSLRVEWLLEHHHHHH,soluble
2,MSHHNPLVSVVIPSKNRPDLVIATLVSVIDQTYDNIEIIVVDDGSDMPLAPLLKDRFSDRVLCLRNDQSLGGAVARNRGAQSAHGDYITFLDDDDLWLPKKLEMQVDAFSKHGVDIGVVYCGFDFLCKEEIVPRQNKFHNDYDLSIAVLSGCPFGSPTPLIRKHYFDMVGGFDRELPSCQDWDLWIRLSKVCGFYPVKESLALYRVHGDQISTNLRKKIDGRKMVLAKHYDEIKNYPRVLSAHYSRIGSLCVLADEHVEARDFFSKALASNMFDGGSFVHLVLQFLCRPLEKWLIERFSVNTIDGIKVIHLEHHHHHH,not soluble
3,MEDFNRRAEELDQVEKNVSLGLKKIQDEMDSIQLEVEPDDVEITSTKRGFWEHDITNLSPFPVVCRVRATSPSMFVVNKNVFLLKPMDFFKLMISRKPGQIRSHHLKIDVTQFVDTFNPINLLDYFIASNPFKTFVVRYHGAPRYWSDALEMNSWLTGEQLNEQWEKEMKKTSQEKKSSLETSEVSSVNEFVDAEEDNFPVQRAAMNITNVLTVASQVPDESNKNEPDSDIDSVVSGTIDSELANLKI,not soluble
4,MPMVRVATNLPDKDVPANFEERLTDLLAESMNKPRNRIAIEVLAGQRITHGASRNPVAVIKVESIGALSADDNIRHTQKITQFCQDTLKLPKDKVIITYFDLQPIHVGFNGTTVAAATM,soluble
5,MSYYHHHHHHLESTSLYKKAGMSDFYDPRERDPSVSRRPQNRQSDEWIRELLLRGTIARVATLWQGEDGAAFPFITPLAYAYRPEQGDLVYHTNVVGRLRANAGQGHPATLEVSEIGQFLPSNSPLELSVQYRSVMVFGTARVLAGEDARAALTTLSERVFPGLKVGETTRPISEDDLKRTSVYSLSIDRWSGKENWAEQAIQEEDWPALGPEWLG,soluble
6,MAHHHHHHSLEYNLTTTDVVMENVTAFWEEGFSKLFEKAKENNNNRKISNCDTSLFFSNLLLGTPVLKDISFKIERGQLLAVAGSTGAGKTSLLMMIMGELEPSEGKIKHSGRISFCSQYSWIMPGTIKDNIIFGVSYDEYRYRSVIKACQLEEDISKFSEKDNIVLGEGGITLSGGQRARISLARAVYKDADLYLLDSPFGYLDVLTEKEIFESCVCKLMANKTRILVTSKMEHLKKADKILILHEGSVYFYGTFSELQNQRPDFSSKLMGCDTFDQFTAERRNSIITETLRRFSLEGDTSV,soluble
7,MSLDSQQKLAAQVTTPLTLSGDNQQAVAIFDQADPRIRIVYFGFTRCPDVCPTSLAMLSAALNQVDDKTKAQLRPMFISLDPERDDAKLAAQYAHYFHPMIEGLSGSVATTNQIAQKYGVIFRKTELPNSELKYTLDHSSYFYFLQPDGTLINKVPHTQDPTPIVDAIKKVIQEGHHHHHH,soluble
8,MSVIKMTDLDLAGKRVFIRADLNVPVKDGKVTSDARIRASLPTIELALKQGAKVMVTSHLGRPTEGEYNEEFSLLPVVNYLKDKLSNPVRLVKDYLDGVDVAEGELVVLENVRFNKGEKKDDETLSKKYAALCDVFVMDAFGTAHRAQASTHGIGKFADVACAGPLLAAELDALGKALKEPARPMVAIVGGSKVSTKLTVLDSLSKIADQLIVGGGIANTFIAAQGHDVGKSLYEADLVDEAKRLLTTCNIPVPSDVRVATEFSETAPATLKSVNDVKADEQILDIGDASAQELAEILKNAKTILWNGPVGVFEFPNFRKGTEIVANAIADSEAFSIAGGGDTLAAIDLFGIADKISYISTGGGAFLEFVEGKVLPAVAMLEERAKK,soluble
9,MGSDKIHHHHHHMERIPVIKTSDLSIGYILKGGQKKRVHDALDLNLYPGEVTCLLGLNGAGKSTLLRTLCGFQPPLGGEIELMGKPLNSYSQGNFSRLVGVVLTEKTNAGGITVYELVSLGRHPYTGFFGQLRQEDRRIIEESLAAAGIAHKAYNYVSELSDGERQKAMIAKALAQQCPIILLDEPTAFLDVTSRIETMVLLHTLAVEQQKAILLSTHDLDLAIQLGDCLWLQEKKRPMACGTPEDLIMGGAFETFFSKEGIVFDPNTGKLNTVAPAKLIGVAGDFMTSYWVGNALIRNGFKPSSVSEDYISVYCNAPDSLRIQFPAEEGTRIVGSVAEMISIIIHKS,not soluble
10,MGSDKIHHHHHHMSKLDAFIQQAVTAMPISGTSLIASLYGDALLQRGGEVWLGSVAALLEGLGFGERFVRTALFRLNKEEWLDVVRIGRRSFYRLSDKGLRLTRRAEHKIYRASAPEWDGTWLLLLSEGLEKNVLADVKKQLLWQGFGALAPSLLASPSQKLADVQSLLHEAGVAENVICFEAHSPLALSRAALRDRVEECWHLTEQNEMYEAFIALFRPLLPLLRDSEPSELTPERCFQIQLLLIHFYRRVVLKDPLLPEELLPAHWAGQTARQLCINIYQRVSPGALAFVSEKGESSVGELPAPGPLYYQRFGGLPGA,not soluble
11,SLFFFASQIVREENKLLDLLFNLFKDFNSFKLEVKRRDKNFAENSSNFKKYLAVKLFEKYQLKGVINNPEIIANIEILKEHFLVFTER,not soluble
12,MGSDKIHHHHHHMLLYIHGFNSSPFSDKAVITAKYMAQHHPSVIFHQPQLPNTPKAAMALLTTYVEAAIDAKEPLAYIGSSLGGYFASYLAETYGGKAVLVNPAVKPFELFDEFMGPQFNPYTEQHYLVVPEHKREVAEFNTAVIRNPDRFLVLLQTGDEVLDYREAVNKYHHCQLRIEAGGDHSFVGYESHLQTVSQFLHLP,not soluble
13,MGSDKIHHHHHHMTDFSQLPNAAGVGYKPQHFQNIIDGSGAVDWLEIHAENYMGDGGRPLAQLRHLAERFPISVHGVGLSIGGEGPLDPEHLARLKHLVDWLKPASFSEHLAWSTHDTHFYNDLLPLPYTDATLARICDHIDMVQTLLGRRMLLENPSSYLAFAESTWEEPAFLHEIAKRTGCGLLLDVNNVFVSATNLGYRPQDYIDAYPLDLVGEIHLGGHDEDEDDHGRPLLIDSHGAEVVDPVWSLLSYTLTRSGPKPTLVEWDTDVPEWSVLEAEAARAANALRTAKVAA,not soluble
14,MSLGYWGVMGNCFRRLSLFGQPTQAKYEMLCSSDDLETEELTFFLDMTYKDFGVYQNDIISHQKDTETMKTLLGLLPMYKKTKLRHTVMERCLSNCPNHVKDALCVELMKAEKILQTMDVVFMKTLIGEFSMCTENLNQLLNKFATDQSTLSDVEKINSLIEIDGENSKRLLVELDPILHEETGLYQALPNVVTEAPSEKVKSIRVESEGESV,not soluble
15,MPTVLRWTRTMCKRPTCRVRQAWLVLPITGRWPSGGVSMKHACMLDSALPKPSQHSLRRQLNAIKREQFPWMSEVTKNAPQMAIIQLGRAFQNFFAGRAKYPKFRKKGMHDRFTLTNDQFDLEASRIRIPRLGWVRMRETLRFAGKIMLATVSRVAGRWFVSITVDVPDPSHLPQAENQGTVGVDLGVLVLATLSTGETVCGPRPHRALLGRVCRLSRSVLRKVKGSANRHKAKATLANLHARIAAIRLDALHTLTSDLTRRFHTIGIENLNVKGMLRNRHLARSIADIGFFEFRRQLEYKAMMRGGQVVVANRFFASSKRCLTCGHTLNELPLSVRQWACPACGARHDRDVNAAVNLKNMAVSSTVSACGEEGAGPRRKTAVGEAGSQLLEHHHHHH,not soluble
16,MTEEMNQIDVQVPEVGDVVKGIVTKVEDKHVDVEIINVKQSGIIPISELSSLHVEKASDVVKVDDELDLKVTKVEDDALILSKRAVDADRAWEDLEKKFETKEVFEAEVKDVVKGGLVVDIGVRGFIPASLVEAHFVEDFTDYKGKTLSLLVVELDRDKNRVILSHRAVVESEQANKKQELLQSLEVGSVLDGKVQRLTDFGAFVDIGGIDGLVHISQLSHSHVEKPSDVVEEGQEVKVKVLSVDRDNERISLSIKDTLPGPWNQIGEKVKPGDVLEGTVQRLVSFGAFVEILPGVEGLVHISQISNKHIGTPHEVLEEGQTVKVKVLDVNENEERISLSMRELEETPKADQEDYRQYQAKEETSTGFQLGDLIGDKLNKLKLEHHHHHH,soluble
17,GPGSMNRAESSANALGEEFVKNMNTALDIVESLVAKGEAQFAILASAKSTFCVGADIDQMYTVTDPAVAVQVPTVGHKLFNRIEQEKFPIVAAINGLALGGGFEMSLACHQRLMASTAKVGFPECLLGLLPGGGGTVRTQRLCGLTKTVQWIMTSKQIKPQEAKSAGACDVIIPADDRWNGEHRFYEGVRKWAGQYLSNKPARLSKRKNISLMDQVLENTTFGRRKVADETIKMLNKKTRGKYIAQYKALECIMYSATHSNQQGFDKECRGFAELLCSPEAKNQMSLYFLQEGMKKSADKTGVPKDKVMPVNRVGVIGAGVMGSGIVHYFAKNNIPVAVKDLTEESVKQGITNVRAEFERAVRRKRMVTAELDGKMALVTGGTTNEVFRDADVIVEAAVEVMDIKKKVIQQLEKDGILHSKSLFATNTSSLSLTEMQTVAKCPHNIVGMHFFNPVSKMPLVEVIKGKSTSTEAAAAIFNLALKTGKIPIIVNDGPGFLVNRILGVYMAEAGRLAVDERCHPACVDEAILAFGMPMGPFRLLDEVGLDVACHVGPVLANGLKSDRFSVSATISQMVADGYLGRKNRKGFYTYAAEGKEAGLNSAVLQKYLGEELSASISETEIVDRCVLLMVNEATRILDEGIAMSPEDVDTGMVWGTGFPPFRGGLLQYADHRGIANVVAALEQLQRKTKRDYFAPTETLKKMAIEGKRFFPTRPYVPYQERHGYPKVTY,not soluble
18,LALIAGTGALPEELVARLSEPPLVCAMEGFAPERLAVDIPFPIEHLGSLVADLKARGVSEICLAGAVGRPAVDPARIDAATLPLVPVIQQALTSGDDGALRAVMGIFENAGLTVRAAHEIAPDLLMPAGCPTKAQPEPAELADARRGAEIVAAMSAADIGQACVVHRGQALAVESVFGTNWMLGSLGQRPDAGGGVLFKAPKPDQDRRADLPTIGPDT,not soluble
19,MSLVFVACGLNHKTAPIHVREKVALQPAMQDSLLSSLLDLPEVNEAAILSTCNRTEIYCDTNTPEVLGNWLAHEHQLSEELLSQFLYIHQGKEGIKHTLRVASGLDSMMIGEPQILGQMKQAYQHACRLGTVKTQLRPVFEYIFRASKRIRTRSGIGANPVSIAYAAVQLIGQLFKNYHSLSVFLIGSGETASLVAKYLHQHGVHRFLIASRTLENAQKLAETFGGKTLSIGDIPQYLPLADVVISATACPLPFINKSLVEHALEQRNHAPMFLLDLAVPRDIEGNVNELEQVHLYNVDDLQSMIEKGMDERRNAALQAEQLIESELDNYIRWHRSLRAKDVICDYRNQMHTLAQQELQRALKKISAGQNQQDVLNEFSMRLVNKLTHNPTIGLRQIAWDNREDLLDLARYLFDTTANQSLYEEISEGHHHHHH,not soluble
20,MNQTLLSSFGTPFERVENALAALREGRGVMVLDDEDRENEGDMIFPAETMTVEQMALTIRHGSGIVCLCITEDRRKQLDLPMMVENNTSAYGTGFTVTIEAAEGVTTGVSAADRITTVRAAIADGAKPSDLNRPGHVFPLRAQAGGVLTRGGHTEATIDLMTLAGFKPAGVLCELTNDDGTMARAPECIEFANKHNMALVTIEDLVAYRQAHERKAS,soluble
21,MELYDTEEQQVEAIKDWWKENGKAVIFGAVIGLGGLFGWRYYQDSVVAAQEAASQSYSKAMDALQAKGIESEGTIQTFIDANKETEYAVLAAMQLAKAQVDAGQLDEALAQLEWAKGATKDAALKPLLTFRVARLQAEQGQFDDALTQLTSIQEKSWAGRVAELRGDILMRKGDSAAAYAAYTEAQQAEDASQTLQMKLDDLAK,not soluble
